# Experimental data published in patent publication US20240350646A1, “METHODS AND COMPOSITIONS FOR DELIVERY TO AND ACROSS THE BLOOD BRAIN BARRIER” (NUtech Ventures, priority 2021, published 2024).
# Columns and labels:
# [1] = K^trans DCE-MRI: brain region accumulation and retention of NPs; format: in vivo, C57BL/6J mice; conditions: for K^trans, corpus callosum (CC): 100 μL of 0.5 mM NP via tail vein
# Procedure: Both male and female young (6-8 weeks) C57BL/6J mice (Jackson Laboratory, Bar Harbor, ME) and middle aged (12 months) C57BL/6J and CX3CR1-GFP (Jackson Laboratory, Bar Harbor, ME) from a C57BL/6J background mice were used. Mice were housed in a 12 h/12 h day/night cycle with ad libitum access to standard mouse chow and water. All animal work was approved by and performed under the guidance of the University of Nebraska-Lincoln IACUC.
# In vivo NP assessment consisted of dynamic contrast-enhanced (DCE)-MRI using a 9.4T MRI system (Varian) to compare targeting agent effect on the uptake as previously described (Miller et al., 2019, Scientific Reports, 9:16099). Briefly, mice were induced with about 2% isoflurane gas and maintained at a concentration sufficient to achieve 50 to 80 breaths per minute. Baseline T1 maps were generated using a gradient-echo sequence and the variable flip angle method with two angles, 10° and 30° (Deoni et al., 2003, Magn. Reson. Med., 49:515-26). Mice were injected with 100 μL of a 0.5 mM NP solution via tail vein catheter followed by 100 μL PBS to flush all remaining NP solution. A flip angle of 30° was used for all post-contrast scans, which occurred for 1 h following injection. TR was between 54 and 84 ms, TE between 2.73 and 4.24 ms, matrix size between 128×128 and 256×256, FOV between 20×20×10 mm^3 and 25×25×10 mm^3 depending on the experiment. NEX varied with matrix size to maintain temporal resolution, with 128×128, NEX=5 for all scans, with 256×256, NEX=4 for baseline and 1 for post-contrast scans.
# Following serial image acquisition, resulting in about 100 post-contrast scans per animal, R1, concentration, and K^trans mapping were performed using custom MATLAB script. R1 mapping was performed using the variable flip angle method based on the following equation (Deoni et al., 2005, Magn. Reson. Med., 53:237-41: […]
# where SSPGR is signal intensity, α is FA, E1 is […], and M0 is a proportionality factor related to longitudinal magnetization. E1 describes the linear relationship between the two signal intensity ratios, taking the slope, m, of that line enables calculation of T1 as:
# Concentration maps were then generated by comparison of baseline R1 maps with post-contrast R1 maps using the following equation: […]
# where C(t) is the concentration at time t, R1(t) is the post contrast R1-value at t, RT(t0) is baseline R1, and r1 is relaxivity of the contrast agent. K^trans, the contrast extravasation rate constant, mapping was then performed using a reference region (RR) model derived from the extended Tofts' model (Tofts et al., 1999, J. Magn. Reson. Imaging, 10:223-232):
# where CTOI and CRR are concentrations in the tissue of interest (TOI) and the RR, respectively, K^trans,TOI and K^trans, RR are K^trans in the TOI and RR, respectively, and ve,TOI and ve,RR are extravascular-extracellular volume fractions for the TOI and RR, respectively. Muscle tissue from within the FOV was used in all animals as the RR. MATLAB was used to execute a least squares curve fitting routine to calculate K^trans for each voxel in the brain.
# [2] = NP characterization: TEM particle diameter, DLS hydrodynamic size, zeta potential; format: physicochemical
# Procedure: A high voltage transmission electron microscope (TEM) (Tecnai Osiris™, 200 kV) was used to measure particle diameters of PEG diacid coated Gd NPs. A copper grid (PELCO mesh size 400, TED PELLA, INC.) covered with an amorphous carbon membrane was placed onto a filter paper. Then, a sample solution diluted in triply distilled water was dropped over the copper grid by using a micropipette (Eppendorf, 2-20 μL). Dynamic light scattering (DLS) studies of the NPs were conducted using a Malvern Instruments Zetasizer Nano series instrument. Solutions of the NPs were prepared in DPBS (pH 7.4) at a concentration of 0.05 mM. The resulting solutions were filtered with 0.22 μm filters before the measurement. The NP concentration was determined by using an inductively coupled plasma mass spectrometer (ICPMS) (Agilent 7500 cx). To determine this, ˜0.5 mL of the NP solution was taken out and treated with HNO3 to dissolve nanoparticles in the solution completely. A Fourier transform-infrared (FT-IR) (Nicolet AVATAR 380 FT-IR) was used to verify the surface coating. To record the FT-IR absorption spectrum (400-4000 cm^−1), the powder sample was prepared. Peptide attachment to NPs was confirmed using BCA assay. Attaching efficiency was confirmed using the equation, Conjugation Efficiency of peptide (%)=Amount of peptide in NPs/Initial amount of peptide×100.
# human claudin-1 = molecular target: T1, human claudin-1 (Homo sapiens, UniProt O95832); assay: In vitro immunofluorescence of NP binding in bEnd.3 cells transfected with human claudin-1 plasmid; format: cell-based; conditions: cells transfected to express human claudin-1; 4 hrs
# T1 construct: made in house
# T1 sequence (O95832 1-211): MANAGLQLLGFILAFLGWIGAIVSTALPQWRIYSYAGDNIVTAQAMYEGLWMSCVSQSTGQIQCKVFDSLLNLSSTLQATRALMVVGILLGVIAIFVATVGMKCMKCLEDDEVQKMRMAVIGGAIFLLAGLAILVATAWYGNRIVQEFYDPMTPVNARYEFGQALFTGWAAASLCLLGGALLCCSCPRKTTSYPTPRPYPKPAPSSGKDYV
# Procedure: bEnd.3 cells were cultured according to the ATCC culture conditions in DMEM. These cells were subjected to ethanol (50 mM) treatment to induce claudin-1 expression and incubated with C1C2-NP for 4 hrs. For determining attachment of the C1C2-NP to human claudin-1, human claudin-1 encoded PCMV script plasmid was overexpressed in bEnd.3 cells and then incubated with C1C2-NP for 4 hrs.
# [3] = old (1-year-old) mice, listed as C1C2-NPs
substance,measurement,setting,value
C1C2-NP: PEG diacid coated ultrasmall Gd NP conjugated with C1C2 peptide SSVSQSTGQIQSKVDSLLNLNSTQATR (SEQ ID NO: 6); claudin-1 targeted (Ac-SSVSQSTGQIQSKVDSLLNLNSTQATR-NH2; also: conjugated to PEG diacid coated ultrasmall Gd nanoparticle),"K^trans, cortex (CTX)",[1]; old (1-year-old) mice,0.0148 min⁻¹
same,"K^trans, hippocampus (HC)",[1]; old (1-year-old) mice,0.0040 min⁻¹
same,"K^trans, hypothalamus (HT)",[1]; old (1-year-old) mice,0.0102 min⁻¹
same,"K^trans, muscle",[1]; old (1-year-old) mice,0.0057 min⁻¹
same,"K^trans, corpus callosum (CC)",[1]; old (1-year-old) mice,0.0058 min⁻¹
same,"K^trans, corpus callosum (CC)",[1]; [3],0.0058 min⁻¹
same,"K^trans, cortex (CTX)",[1]; [3],0.0145 min⁻¹
same,"K^trans, hippocampus (HC)",[1]; [3],0.0040 min⁻¹
same,"K^trans, hypothalamus (HT)",[1]; [3],0.0134 min⁻¹
same,"K^trans, cortex (CTX)",[1]; young mice,0.0022 min⁻¹
same,"K^trans, hippocampus (HC)",[1]; young mice,0.0019 min⁻¹
same,"K^trans, hypothalamus (HT)",[1]; young mice,0.0026 min⁻¹
same,"K^trans, muscle",[1]; young mice,0.0028 min⁻¹
same,"K^trans, corpus callosum (CC)",[1]; young mice,0.0019 min⁻¹
same,"Zeta Potential, mV (with NPs)",[2],7.81 ± 0.38 mV
same,Hydrodynamic size (nm),"[2]; DLS, DPBS pH 7.4",14.5 ± 0.13 nm
same,Binding to bEnd.3 cells,human claudin-1,High NP binding
